From the DeepSol protein solubility set come the findings set out here.

This data set in a line: soluble on expression in E. coli; label from the status in PepcDB or PDB records.
With “MTEEQFSSYHPPLPPTTEEDRFSWLRLLRSRRVGPTTFRRLMHEHGTAQNALAALPEVARAAGVEGYEICPPGVVEAELKAAKAAKARLLCLGDADYPSHLAGISDAPPLLWLLGDPALLRRPMIALVGARNASSLGTRMARALAQDLGTAGFVVVSGLARGIDTAAHLAALPSGTIAVMAGGVDTVYPAENTHLAADIAQHGLRLSEQPMRLTPQARHFPRRNRIISGLAQAVVVVEAAAKSGSLITARDALDQGREVLAVPGHPFDARAAGCNMLIRDGAHLVRNAEDVITALPALTAPQPQPDLCDLMQQPAPPAKRSLRETVALHSLILDRLGPSPVAEDQLIRDLAASPGEVAPVLVDLELEGRINRQAGGLLSRVN”, the “soluble on expression in E. coli” value is listed as “not soluble”.

As for “MTEFQLEKAATLKTIAIRAKKVGEMVDFYKKVMGFVLKSEENNLSIWGTREAGTQLLILEETRKAEDFHNEEKQMAYFSIKVPTEKEFLQIAQRVLEQDYPIDESFQIGTRQSMFITDLEGNQFEIFHDEATANSTSEKQPIVLKDLISEDLEPHQGLAAGSYLAHVQLKTNNQKEIKAYYEEVLGLKRNEKDQFVLEDGKATIGFQKPETSEVDQLPDPHLGLDFFTIKLSDQEHILAMEQQLTAKNQEFFIDQKKAIVTVFDPIGLEWWFVLK”, the “soluble on expression in E. coli” value is “not soluble”.

As to “MTEKALDSKQTGYCLSTDHYRIRRALPSDYDSILALWEDARHTMLASDNPQWQGAYPGETEAQEDIARGEAFLLDIAGTPLGVMAVNDQMPAEYGSLPWQTEGKAYTIHRLGVHSSLLRKGYAAAMLFSAETIAREQGGTCIRIDTYSPNTAAQSLFRRLGYRQVCSFHMKQKPLPYIAFEKSLLKQLGSG”, the “soluble on expression in E. coli” value is “not soluble”.

Turning to “MTELARLKFYATQPHPCSYLPEEQATTLFLDPSQPMDTQLYASLSEVGFRRSGDHLYRPHCQHCTACIAARIPVADFSPNRQQRRILKRNAELQVIRKRPSFNEEYYDLYRRYIEQRHADGDMYPPSRDQFATFLVRDLPFCCFFEFRLHGRLLAIAVTDVLPNGLSAVYTFYDPDEEQRSLGRYAILWQIAETERLGLQAVYLGYWIKNCRKMNYKTQYRPIELFVNQRWVALTLEHHHHHH”, the “soluble on expression in E. coli” value is “not soluble”.

On to “MTELKLIHIFTDGSCLGNPGPGGYGIVMKYKGHTKEMSGGFSLTTNNRMELLAPIVALEALKEPCKIILTSDSQYVRQGIMTWIHGWKKNGWMTSNGTPVKNVDLWKRLDKAAQLHQIDWRWVKGHAGHAENERCHQLARAAAEANPTQIDTGYQAES”, for which the “soluble on expression in E. coli” value was “soluble”.

With “MTELRVYLLIEALQPQFAACLSSPTRARGYPAFAGQSSLIIEVSPALAIHRVTDLALKSAPAMEPGILYTERQFGLLELHADSLEKLNAAGQAILDGMGAKPEDQLKPQILYHDIIENLSDQHAIILNRSREASILVPGVALLIYEMAPALFACVAANEAERAVPRAVINDVQMMGATGRVFMSGSLAEMRLARETITAKLESIPGRQ”, the “soluble on expression in E. coli” value was “not soluble”.

“MTEMELKLIKIDTSHYFEKKPGLGERVDYAGRCFYNKFQRVNAMLTSSLIQKHLKREIEIAHNLILRNDKVENIVFDYNGRNPERFYHKAQLLLREEGFMNFTAYNTKTPGHLHLYVHKGHTELGEGERLVKTLSMKLAQGLPKEWKVFPSNEWPKEFNILALPYEVFAKERGSSWAKHL”: the “soluble on expression in E. coli” value is reported as “soluble”.

With “MTENAQDKARQAVETVVKSPELVEQILSDEYVQIMIARCFHSGPLPPPSDLAQYNDIISNGADRIMAMAEKEQAVRHETIRQDQTFNRRGQ”, the “soluble on expression in E. coli” value is on record as “not soluble”.

Regarding “MTENVVCTGAVNAVKEVWEKRIKKLNEDLKREKEFQHKLVRIWEERVSLTKLREKVTREDGRVILKIEKEEWKTLPSSLLKLNQLQEWQLHRTGLLKIPEFIGRFQNLIVLDLSRNTISEIPPGIGLLTRLQELILSYNKIKTVPKELSNCASLEKLELAVNRDICDLPQELSNLLKLTHLDLSMNDFTTIPLAVLNMPALEWLDMGSNKLEQLPDTIERMQNLHTLWLQRNEITCLPQTISNMKNLGTLVLSNNKLQDIPVCMEEMANLRFVNFRDNPLKLKVSLPPSEGTDEEEERELFGLQFMHTYIQESRRRADHQVNGSTTLPISINTDG”, the “soluble on expression in E. coli” value was “soluble”.

As to “MTEPDVAGAPASKPEPASTGAASAAQLSGYSRVLLKLGGEMFGGGQVGLDPDVVAQVARQIADVVRGGVQIAVVIGGGNFFRGAQLQQLGMERTRSDYMGMLGTVMNSLALQDFLEKEGIVTRVQTAITMGQVAEPYLPLRAVRHLEKGRVVIFGAGMGLPYFSTDTTAAQRALEIGADVVLMAKAVDGVFAEDPRVNPEAELLTAVSHREVLDRGLRVADATAFSLCMDNGMPILVFNLLTDGNIARAVRGEKIGTLVTT”, the “soluble on expression in E. coli” value was “soluble”.

In the case of “MTEPWIAFPPEVHSAMLNYGAGVGPMLISATQNGELSAQYAEAASEVEELLGVVASEGWQGQAAEAFVAAYMPFLAWLIQASADCVEMAAQQHVVIEAYTAAVELMPTQVELAANQIKLAVLVATNFFGINTIPIAINEAEYVEMWVRAATTMATYSTVSRSALSAMPHTSPPPLILKSDELLPDTGEDSDEDGHNHGGHSHGGHARMIDNFFAEILRGVSAGRIVWDPVNGTLNGLDYDDYVYPGHAIWWLARGLEFFQDGEQFGELLFTNPTGAFQFLLYVVVVDLPTHIAQIATWLGQYPQLLSAALTGVIAHLGAITGLAGLSGLSAIPSAAIPAVVPELTPVAAAPPMLAVAGVGPAVAAPGMLPASAPAPAAAAGATAAGPTPPATGFGGFPPYLVGGGGPGIGFGSGQSAHAKAAASDSAAAESAAQASARAQARAARRGRSAAKARGHRDEFVTMDMGFDAAAPAPEHQPGARASDCGAGPIGFAGTVRKEAVVKAAGLTTLAGDDFGGGPTMPMMPGTWTHDQGVFDEHR”, the “soluble on expression in E. coli” value is “not soluble”.

For the sequence “MTESVFAVVVTHRRPDELAKSLDVLTAQTRLPDHLIVVDNDGCGDSPVRELVAGQPIATTYLGSRRNLGGAGGFALGMLHALAQGADWVWLADDDGHAQDARVLATLLACAEKYSLAEVSPMVCNIDDPTRLAFPLRRGLVWRRRASELRTEAGQELLPGIASLFNGALFRASTLAAIGVPDLRLFIRGDEVEMHRRLIRSGLPFGTCLDAAYLHPCGSDEFKPILCGRMHAQYPDDPGKRFFTYRNRGYVLSQPGLRKLLAQEWLRFGWFFLVTRRDPKGLWEWIRLRRLGRREKFGKPGGSA”, the “soluble on expression in E. coli” value was “soluble”.

As to “MTFGRLWEKFLASAYYSDLSPRTQKDYLQHQKKLLAVFGKVPADSIKPEHIRRYMDKRGEQSKTQANHEKSSMSRVYSWGYERGYVKANPCAGVSKFKAKNRERYVTDKEYQAVLSVAPLPVFIAMEIAYLCAARVSDVLSLKWEQIGNDGIFIQQGKTGKKQIKAWSPRLQAAIEKAKQLPTSAYVISNQYGNRYMYKGFNEMWVEARNRAGKISGILTDFTFHDLKAKGISDYEGSSRDKQLFSGHKTEGQVLIYDRKVKVSPTLDVPLPENIPRKYSK”, the “soluble on expression in E. coli” value was “not soluble”.

For “MTFNHKKMEPKWQQYWSEHNTFKTTEDKNKENFYALDMFPYPSGAGLHVGHPEGYTATDILSRMKRMQGKNVLHPIGWDAFGLPAEQYAIDTGNDPEEFTALNIANFTRQIKSLGFSYDWDREINTTDPEYYKWTQWIFEKLYENGLAYEAEIAVNWCPALGTVLANEEVIDGKSERGGFPVFRKPMRQWMLKITAYADRLLDDLDLVDWPENIKDMQRNWIGRSEGAEVTFKIKDSDETFNVFTTRPDTLFGATYTVFAPEHELIEKITTPEQKEAVEAYKKQVELKSELERTDLAKDKTGVFTGAYAINPINGEEVPIWIADYVLIQYGTGAIMAVPAHDERDFEFAQQFGLNIRPVLEGGDVTKEAFTGDGPHINSDFLNGLAKAEAITAAIDWLEKEGIGSRKITYRLRDWLFSRQRYWGEPIPVIHWEDGETTLVPEEELPLLLPKATEIKPSGTGESPLANLHDWVNVTDENGRKGRRETNTMPQWAGSSWYFLRYIDPKNSEAIADKEKLAEWLPVDVYIGGAEHAVLHLLYARFWHKFLYDIGVVPTKEPFQKLFNQGMILGENNEKMSKSRGNVVNPDEVVEKYGADTLRLYEMFMGPLEASIAWNENGLEGARKFLDRIWRLLVTEEGTLAEKVTTDANANLEKAYHHMVKTVTNHYENLRFNTGISQLMIFINEAYKQDTIPKQYVEGFVQLLSPIAPHLAEELWEILGHTETISYVAWPTYDETKLVEDEVEIVLQVNGKVKSKITVAKSLGKEELEKIAQEDNKMKENLEGKTIRKVIVVPGKLVNIVAN”, the “soluble on expression in E. coli” value is “not soluble”.

As for “MTFQASGTTGITTLTVTEECRVQVGNVTATLARSKLKDDTAIGVIGVTALGCNGLQAALQADPDNYDATNLYMTSRNHDKLNVKLKATDGSSWTYGNGVFYKTEGGNWGGHVGISVDGNQTDKPTGEYTLNLTGGYWTNDNKQTFQASGTTGITTLTLEHHHHHH”, the “soluble on expression in E. coli” value was “soluble”.

In the case of “MTFTASSSSCAITESPVVVALDYHERDKALAFVDKIDPRDCRLKVGKEMFTLFGPQLVRDLQQRGFDVFLDLKFHDIPNTTARAVAAAADLGVWMVNVHASGGARMMAAARDALAPFSKDAPLLIAVTVLTSMETSDLHDLGVTLSPAEHAERLARLTQQCGLDGVVCSAQEAVRFKQAFGAAFKLVTPGIRPAGSEAGDQRRIMTPEQALSAGVDYMVIGRPVTQSVDPAQTLKDINASLKREA”, the “soluble on expression in E. coli” value is on record as “not soluble”.

“MTFTGLPPEDVPALMTGAVIPHPSVAGRADAYLPSPCIQNHAANLAFLPDGTLSCVWFGGTMEGMRDISIYMSRLPPGSGRWSEPEKMSDDPEKSEQNPLIFNAPDGKTWLLYTSQTSGNQDGSIVKCRISDDGGKTFGPVQILCDSPGTFVRQQIVVNDRGDWLLPIFRCVGLEGQRWSGDADTAAVLISRDGGASWQMRDIPDSIGAVHMNILPLGGCEMIAFYRNRFAETILSSRSADGGETWSPPEPTELPNNNSSIQATVLDNGGIAMVYNHSNATMSDARRQSLYDEIEGDECGENAAVVADAGRKAVWGVPRAPLSLAISRDGGRTFPHRIDLDTGDGFCLSNNSKDSLNREFSYPSVIEGSDGTLHVAYTYYRRALEHHHHHH”: the “soluble on expression in E. coli” value is on record as “not soluble”.

Take “MTGHWSYCDDDECGPNRWPTGQHQSPINIDLGEVERKDTHDGIKFVNYDHPIQGDIVNNGHSVQMTPELRSEHPEIYGGGLDQVYRLVQYHFHWGENDNEGSEHTLGGLRYPAELHLVHQGVEDPGKLAVVGVFLQLGKEGKALSNEERVLGKLCNPETVTRVENVRLSEKLPANKRSFWRYEGSLTTPPCSEIVTWTIFTEPVTVTHDQLELFRQVQDIEKRPIKKNYRPTQNLNDRKIVHIVAN”: the “soluble on expression in E. coli” value is given as “not soluble”.

For the sequence “MTGILDSVNQRTQLVGQNRLELLTFRLMGRQRYGINVFKVKEVLQCPKLTSMPNLHPLVKGIAHIRGHTVSVIDLSLAIGGRPTTDIDKCFVVIAEFNRTIQAFLVSSVERIINMHWEAILPPPDGAGKAHYLTAVTNIDNELVEILDVEKILAEIAPVDETMDSTIGEEIAQAEQEKPIVR”, the “soluble on expression in E. coli” value was “not soluble”.

Consider “MTGQPSTPVRPGSVVRTVRRHRGGRSATVQDMVAAEMPVAFNYNGVPFAVMMATPEDLEDFALGFSLSEGIVDHPQDLRVVAVDTFLEGASLQIEIPPERAAALDQRRRNLDGRSGCGVCGNESIEAVLRVPPVLQSALRIDVDALARALDALHARQPIAAQTGAVHAAGWADAQGMVQLVREDVGRHNALDKLIGALARARVDATQGFAVVTSRASYEMAMKAAQARIPLLAAISAPTALAISLADSAGLTLIGFARDHDCVVYSHPQRLDLGVAVGEPALEHHHHHH”, for which the “soluble on expression in E. coli” value is “not soluble”.

Take “MTGSQKLILTGRPFLHHQGIINQVSTVTKVIHHELEVAASADDIWTVYSWPGLAKHLPDLLPGAFEKLEIIGDGGVGTILDMTFVPGEFPHEYKEKFILVDNEHRLKKVQMIEGGYLDLGVTYYMDTIHVVPTGKDSCVIKSSTEYHVKPEFVKIVEPLITTGPLAAMADAISKLVLEHKSKSNSDEIEAAIITVHHHHHH”: the “soluble on expression in E. coli” value is listed as “soluble”.
